molecular target: SARS-CoV-2 RBD (SARS-CoV-2, UniProt P0DTC2 319-541)

Row | Binder | Kd [nM]
1 | 53182-9 (antibody, V domains shown) VH: EVQLVESGGGLILPGGSLRLSCAASGVTVSSNYMNWVRQAPGKGLEWVSVIYSGGSTFYADSVKGRFTISRDNSKNTLYLQMNSLRAEDTAVYYCARGGWPSGDTFDIWGQGTMVTVSS VL: DIQLTQSPSFLSASVGDRVTITCRASQGISSYLAWYQQKPGKAPKLLIYAASTLQSGVPSRFSGSGSGTEFTLTISSLQPEDFATYYCQQLNSYPEITFGPGTKVDIK | 0.0475
2 | 53182-1 (antibody, V domains shown) VH: EVQLVESGGGLIQPGGSLRLSCTASGITVSTNYMTWVRQAPGKGLEWVSIIYSGGSTYYADSVKGRFTISRDNSKNTLYLQMNSLRADDTAVYYCTRGGWPSGDTFDIWGLGTMVTVSS VL: DIQLTQSPSFLSASVGDRVTITCRASQGISSYLAWYQQKPGKAPKLLIYGASTLQSGVPSRFSGSGSGTEFTLTISSLQPEDFATYYCQQLNSYPEITFGPGTKVDIK | 2.81
3 | 5317-6 (antibody, V domains shown) VH: QLQLQESGPGLVKPSETLSLTCTVSGASISSSSYYWGWIRQPPGKGLEWIGTMYYRGSTDYNPSLKSRVTISVDTSKNQFSLRLSSVTAADTAVYYCARRVPGDYYCLDVWGKGTTVTVSS VL: DIQLTQSPSSLSASVGDRVTVTCRASQSISDYLNWYQQKPGKAPKLLIYAASSLQTGVPPRFSGSGSGTDFTLTISSLQPEDFATYYCQQSFSARVPTFGGGTKVESK | 1.66
4 | 53182-3 (antibody, V domains shown) VH: EVHLVESGGGLVQPGGSLRLSCAASGFTVSSNYMSWVRQAPGKGLEWVSVIYSGGNTYYADSVKGRFTISRDNSKNTLYLQMNSLRAEDTAVYYCARDRRIIGYYFGMDVWGRGTTVTVSS VL: QSALTQPASVSGSPGQSITISCTGTSSYVGSFDLVSWYQQHPGKAPKLMIYEVSKRPSGVSNRFSGSKSGNTASLTISGLQAEDEADYYCCPYADTWVFGGGTKLTVL | 8.32
5 | 53182-6 (antibody, V domains shown) VH: EVQLVESGGGLVQPGGSLRLSCAASGFTVSDNYMSWVRQAPGKGLQWVSVIYSGGNTYYADFVKGRFNITRDDSKNMLYLQMNSLRREDTAVYYCVRDRRIVGYYFGLDVWGQGTTVTVFS VL: QSALTQPASVSGSPGQSITISCTGTSSDVRNYNLVSWYQQHPGKAPKLMIFEDSKRPSGVSNRFSGSKSGNTASLTIAGLQPEDEADYYCCSYATTWVFGGGTKVTVL | 0.935
6 | 53182-8 (antibody, V domains shown) VH: QLQLQESGPGLVKPSETLSLTCTVSGGSISSSSYYWGWIRQPPGKGLEWIGTIYYSGSTYYNPSLKSRVTISVDTSKTQFSLKLSSVTAADTAVYYCARDRRGGGWTASFDFWGQGTLVTVSS VL: not shown | 16.5
7 | 5317-2 (antibody, V domains shown) VH: QVQLVQSGAEVKKPGSSVKVSCKVSGGTFSSYTIIWVRQAPGQGLEWMGRVIPVVHITHYAQRFRGRVTISADKSTSTAYMELSSLRSEDTAVYYCARGLWFGDSETVWFDPWGQGTLVTVSS VL: DIQMTQSPSSLSASVGDRVTITCRASQNITYYLNWYQQKPGKAPNLLIYTASSLQSGVPSRFIGSGSGTDFTLTISSLQPEDFATYCCQQSYSTPPTFGQGTKVEIR | 1.95
8 | antibody 5317-4 (antibody, V domains shown) VH: QVQLRLWGAGLLKPSETLSLTCAVSGGSFIDYYWTWIRQPPGKGLEWIGEINHFGGSGYNPSLKSRVSISVDTSKNQFSLRLNSVTAADTAIYYCARKPLLHSSVNPGAFDIWGQGTMLTVSS VL: EIVLTQSPGTLSLSPGERAALSCRASQSVAGTYLAWYQQKPGQAPRLLIYGASSRATGIPDRFSGSGSGTDFTLTISRLEPEDFAVYYCQQYATSPRTFGQGTQLEIR | 1.78
9 | 5317-3 (antibody, V domains shown) VH: EVQLVESGGGLVQPGGSLRLSCSASGFTFSSYPMYWVRQAPGIGLEYVSGITDNGGSTYYGDSVKGRFTISRDNSKNTLNLQMNNLRTEDTAVYYCVKGKIQLWLGADYWGQGTLVTVSS VL: DIQMTQSPSSLSASVGDRVTITCRANQTISSYLNWYQQKPGKAPKVLIFAASSLEGGVPSRFSGSGSGTDFTLTISSLQPEDFATYSCQQSYNTPWTFGQGTKVEIK | 1.92
10 | 5317-5 (antibody, V domains shown) VH: QVQLVQSGAEVKKPGSSVKVSCKASGGTFSSYPITWVRQAPGQGFEWMGKIIPILGIADYAQSFQGRVTITADKSTTTAYMELSSLRSEDTAVYYCAREKGYSSSSSATYYLDFWGQGTLVTVSS VL: QSVLTQPPSVSGAPGQRVTISCTGSNSNIGAGYDVHWYQQLPGTAPRLLIYRNSNRPSGVPDRFSGSKSGTAASLAISGLQAEDEADYYCQSYDSSLTALVFGGGTKLTVL | 0.0826
11 | 5317-1 (antibody, V domains shown) VH: QMQLVQSGPEVKKPGTSVKVSCKASGFTFSTSVVQWVRQPRGQRLEWIGGIVVGRGNTKYAQNFQERVTITRDMSTSTAYMELSNLRSEDTAVYYCAADPFADYWGQGTLVTVSS VL: not shown | 0.0434
12 | 53182-11 (antibody, V domains shown) VH: EVQLVEFGGGLVQPGRSLRLSCATSGFTFEDFDMHWVRQAPGKGLEWVSGSTWNSGIIGYADSVKGRFTTSRDNAKNSLYMQMNNLREEDTALYYCAKDIGRYDHYNIFGRVGGAFDIWGQGTMVTVSS VL: DIQMTQSPSSLSASVGDRVTISCQTSQDISVSLNWYQQKPGKPPKVLIYDASNLEAGAPSRFSGSGSGTDFTFTISSLQPEDIATYYCQHYDNLPRFGPGTKVDIK | 3.18
13 | 5317-7 (antibody, V domains shown) VH: EVQLVGSGGGLVQPGGSLRLSCAASGFTFSTYWMSWVRQAPGKGLEWVADIKQDGSEKYYVDSVKGRFTISRDNAKNSLYLQMNSLRVEDTALYYCARGGLWGTFDYWGQGTLVTVSS VL: EIVLTQSPGTLSLSPGERASLSCRASQSVSSSYLAWYQQKPGQAPRLLIYGASSRATGIPDRFSGSGSGTDFTLTISRLEPEDFAVYWCQQFAYSLYTFGQGTKLEIK | 10.5

molecular target: SARS-CoV-2 NTD (SARS-CoV-2, UniProt P0DTC2 14-305)

Row | Binder | Kd [nM]
14 | 53182-4 (antibody, V domains shown) VH: QITLEESGPTLVTPTQTLTLTCSFSGFSLDTIGVAVAWIRQPPGKALEWLGTVFWDYDKRYSPPLSSRLTVIKDTSQQYVVLRLTDVGPGDTATYYCARLLIEHDAFDIWGQGAVVIVSS VL: DVVVTQSPVSLPATPGEPASISCRASQSLLHRNGKHYLHWYLQRPGQSPQLLIYLGSNRASGVPDRFSGSGSGTVFSLKISRVEAEDVGIYYCMQALHFPYTFGQGTKLDIK | 2.28
15 | 53181-1 (antibody, V domains shown) VH: QVQLVQSGAEVKKPGASVKVSCKASGYTFTNYVLTWVRQAPGQGLEWMGWISAYNGSTNYAQNLQGRVTMTTDTSTSTAYMELRSLRSDDTAVYYCARDPASYYDFWSGYVDYYYYGMDVWGQGTTVTVSS VL: ELVLTQSPGTLSLSPGERATLSCRASQSVSSSYLAWYQQKPGQAPRLLIYSASSRATGIPDRFSGSGSGTDFTLTISRLEPEDFAVYYCQQYGNSRLTFGPGTKVDIK | 1.17
16 | 53181-2 (antibody, V domains shown) VH: QVQLVQSGAEVKKPGASVKVSCKASGYTFTSYSINWVRQAPGQGLEWMGWISAYNGSTNYAQKLQGRVTMTTDTSTSTAYMELRSLRSDDTAVYYCARDPASYYDLWSGYVDYYYYGMDVWGQGTTVTVSS VL: EIVLTQSPGTLSLSPGERATLSCRASQSVSSSYLAWYQQKPGQAPRLLIYGASSRATGIPDRFSGSGSGTDFTLTISRLEPEDFAVYYCHHYGSSRLTFGPGTKVDIK | 31.3

Source: patent publication US20240101646A1 (published 2024)
